T1: hNFAT1 (Homo sapiens, UniProt Q13469)
T1 construct: contains the coding region for 400-692 amino acid residues of hNFAT 1; expressed in transfected cells; host or cells: yeast strain EGY48/p8op-lacZ
T1 sequence (Q13469 400-692): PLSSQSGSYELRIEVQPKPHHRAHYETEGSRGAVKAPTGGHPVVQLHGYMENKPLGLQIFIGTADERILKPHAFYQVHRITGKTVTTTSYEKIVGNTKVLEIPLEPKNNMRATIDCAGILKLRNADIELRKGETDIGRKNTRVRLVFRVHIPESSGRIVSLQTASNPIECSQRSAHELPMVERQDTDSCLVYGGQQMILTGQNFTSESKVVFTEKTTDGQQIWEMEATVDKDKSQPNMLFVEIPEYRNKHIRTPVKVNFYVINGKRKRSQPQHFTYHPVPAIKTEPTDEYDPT


Experiments:
LacZ = LacZ (Escherichia coli, UniProt P00722); conditions: LacZ substrate
Procedure: (1) CPRG is used rather than ONPG. […] In assays SmM (10×Km) is used which we take to be approximately saturating.
Grow yeast cultures overnight. Dilute back to OD 0.05 to 0.1 next day and allow to continue growing. When they have reached an OD of about 1, make a set of dilutions in culture medium. Add 120 ul of each dilution to the wells of a microtitre plate. Start the reaction by addition of 30 ul reaction buffer and measure the initial rate of reaction (kinetic read over 10 minutes).

HepG2 cells = conditions: overexpression in HepG2 cells; cited from earlier work
mNFATp = experiment: yeast two hybrid assay, interaction with mNFATp; format: binding, murine; conditions: colonies, FIG. 11 and FIG. 12
Procedure: An hNIP45 AD-fusion construct is co-transformed into the yeast host EGY48 (CLONTECH, cat # K1609-1) with the original murine LexA-NFATp bait and reporter, pSH18-34 (CLONTECH, cat# K1609-1). The functional conservation of hNIP45 is assessed by its ability of interacting with the NFATp protein to activate the reporter gene expression. Hodge, M., et al., NF-AT-Driven Interleukin-4 Transcription Potentiated by NIP45, Science, 274:1903 (1996). See, Example VI infra.

hNFAT1 = biological target: T1, hNFAT1; experiment: yeast two hybrid assay, interaction with hNFAT1; format: binding; conditions: colonies, FIG. 11 and FIG. 12
Source text: A 879 bp DNA fragment, corresponding to positions 1418-2296 of hNFAT1 nucleic acid sequence (GenBank Accession number U43342), was PCR amplified via standard methods using Clontech human lymph node Marathon Ready cDNA as template. CLONTECH, Palo Alto, Calif. The resulting PCR product was cloned into the bait vector, plexA-BD (CLONTECH). The hybrid construct (plexA-BD-hNFAT1-BD) contains the coding region for 400-692 amino acid residues of hNFAT 1, which corresponds to the DNA binding region of the hNFAT 1 protein. The full length hNIP45H cNDA was cloned into prey vector pB42AD (CLONTECH). This hybrid construct (pB42AD-hNIP45H) contains the entire open reading frame of […].
Yeast strain EGY48/p8op-lacZ (CLONTECH) was transformed with the plexA-BD-hNFAT1-BD plasmid. […] Yeast strain EGY/p8op-lacZ/plexA-BD-hNFAT1-BD was subsequently transformed with pB42AD-hNIP45H prey construct. Transformants from SD/-UHW plates were subsequently tested on a 4-plate test (SD/-UHW, X-gal vs. GR/-UHW, X-gal, and SD/-UHWL vs. GR/-UHWL).

Sequence of mNFATp (Q60591 394-576 limits assumed): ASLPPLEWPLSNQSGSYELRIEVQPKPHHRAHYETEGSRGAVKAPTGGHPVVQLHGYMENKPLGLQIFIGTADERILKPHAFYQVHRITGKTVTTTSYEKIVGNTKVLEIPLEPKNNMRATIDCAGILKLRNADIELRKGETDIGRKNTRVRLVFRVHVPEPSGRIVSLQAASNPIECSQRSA
Sequence of LacZ (P00722 whole entry): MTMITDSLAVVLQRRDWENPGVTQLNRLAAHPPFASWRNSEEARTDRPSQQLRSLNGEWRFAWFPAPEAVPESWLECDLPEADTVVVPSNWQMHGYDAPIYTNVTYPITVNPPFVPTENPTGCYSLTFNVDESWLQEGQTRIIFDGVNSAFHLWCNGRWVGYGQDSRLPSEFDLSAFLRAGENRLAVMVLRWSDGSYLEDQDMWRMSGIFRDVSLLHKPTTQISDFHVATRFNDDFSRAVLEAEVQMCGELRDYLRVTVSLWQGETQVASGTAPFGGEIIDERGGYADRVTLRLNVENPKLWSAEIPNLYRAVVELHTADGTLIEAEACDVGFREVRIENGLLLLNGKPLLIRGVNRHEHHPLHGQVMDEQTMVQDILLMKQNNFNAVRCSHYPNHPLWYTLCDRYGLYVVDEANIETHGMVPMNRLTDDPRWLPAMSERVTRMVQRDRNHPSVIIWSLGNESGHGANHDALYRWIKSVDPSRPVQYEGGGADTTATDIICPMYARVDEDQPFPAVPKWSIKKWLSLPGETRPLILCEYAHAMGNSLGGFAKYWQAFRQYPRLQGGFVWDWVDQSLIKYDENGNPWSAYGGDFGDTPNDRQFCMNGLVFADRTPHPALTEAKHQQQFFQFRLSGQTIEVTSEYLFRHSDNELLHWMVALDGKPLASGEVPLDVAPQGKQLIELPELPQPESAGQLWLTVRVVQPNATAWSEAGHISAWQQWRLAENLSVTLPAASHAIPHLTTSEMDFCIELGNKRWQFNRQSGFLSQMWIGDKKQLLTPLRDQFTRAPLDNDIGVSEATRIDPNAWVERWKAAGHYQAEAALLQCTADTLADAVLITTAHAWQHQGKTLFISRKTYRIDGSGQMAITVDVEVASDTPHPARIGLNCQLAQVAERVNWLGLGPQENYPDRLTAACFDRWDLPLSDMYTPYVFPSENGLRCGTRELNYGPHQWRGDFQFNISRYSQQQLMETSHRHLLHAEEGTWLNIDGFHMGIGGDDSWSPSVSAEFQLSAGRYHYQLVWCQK

interaction with hNFAT1 (hNFAT1) | Molecule | Km (LacZ) [µM] | increase of endogenous IL-4 production (HepG2 cells) [fold] | interaction with mNFATp (mNFATp)
– | O=S1(=O)OC(c2ccc(O)c(Cl)c2)(c2ccc(O[C@@H]3O[C@H](CO)[C@H](O)[C@H](O)[C@H]3O)c(Cl)c2)c2ccccc21 (stereo partly drawn) [CPRG, Chlorophenol red-b-D-galacopyranoside] | ~500 | – | –
does not interact with hNFAT1 very well | mNIP45: murine NIP45, NF-ATp interacting protein, 412 amino acid residues, SEQ ID NO:4 (protein, listed as Mus musculus) MAEPLRGRGPRSRGGRGARRARGARGRCPRARQSPARLIPDTVLVDLVSDSDEEVLEVADPVEVPVARLPAPAKPEQDSDSDSEGAAEGPAGAPRTLVRRRRRRLLDPGEAPVVPVYSGKVQSSLNLIPDNSSLLKLCPSEPEDEADLTNSGSSPSEDDALPSGSPWRKKLRKKCEKEEKKMEEFPDQDISPLPQPSSRNKSRKHTEALQKLREVNKRLQDLRSCLSPKQHQSPALQSTDDEVVLVEGPVLPQSSRLFTLKIRCRADLVRLPVRMSEPLQNVVDHMANHLGVSPNRILLLFGESELSPTATPSTLKLGVADIIDCVVLASSSEATETSQELRLRVQGKEKHQMLEISLSPDSPLKVLMSHYEEAMGLSGHKLSFFFDGTKLSGKELPADLGLESGDLIEVWG | – | 200 | interacts well
interacts well | hNIP45: novel human NIP45 polypeptide, 419 amino acid residues, SEQ ID NO:3, IL-4 transcriptional trans-activator (protein, listed as Homo sapiens) MAEPVGKRGRWSGGSGAGRGGRGGWGGRGRRPRAQRSPSRGTLDVVSVDLVTDSDEEILEVATARGAADEVEVEPPEPPGPVASRDNSNSDSEGEDRRPAGPPREPVRRRRRLVLDPGEAPLVPVYSGKVKSSLRLIPDDLSLLKLYPPGDEEEAELADSSGLYHEGSPSPGSPWKTKLRTKDKEEKKKTEFLDLDNSPLSPPSPRTKSRTHTRALKKLSEVNKRLQDLRSCLSPKPPQGQEQQGQEDEVVLVEGPTLPETPRLFPLKIRCRADLVRLPLRMSEPLQSVVDHMATHLGVSPSRILLLFGETELSPTATPRTLKLGVADIIDCVVLTSSPEATETSQQLQLRVQGKEKHQTLEVSLSRDSPLKTLMSHYEEAMGLSGRKLSFFFDGTKLSGRELPADLGMESGDLIEVWG | – | – | –

Reference: patent US20020028482A1, “NIP45 HUMAN HOMOLOG” (priority 1997, published 2002)
